The experiment deals with T1, Torpedo nAChR (extract from the electric organ of Torpedo californica) (Tetronarce californica (Torpedo …, UniProt P02710;P02712;P02714;P02718)).
T1 construct: acetylcholine receptor α-subunit, Torpedo californica; acetylcholine receptor β-subunit, Torpedo californica; acetylcholine receptor γ-subunit, Torpedo californica; acetylcholine receptor δ-subunit, Torpedo californica; also called torpedo AChR antigen; source: extract of the electric organ of Torpedo californica (gift, University of Nagasaki); copies: + + +
T1 sequence (P02718 whole entry, looked up, chain 1 of 4): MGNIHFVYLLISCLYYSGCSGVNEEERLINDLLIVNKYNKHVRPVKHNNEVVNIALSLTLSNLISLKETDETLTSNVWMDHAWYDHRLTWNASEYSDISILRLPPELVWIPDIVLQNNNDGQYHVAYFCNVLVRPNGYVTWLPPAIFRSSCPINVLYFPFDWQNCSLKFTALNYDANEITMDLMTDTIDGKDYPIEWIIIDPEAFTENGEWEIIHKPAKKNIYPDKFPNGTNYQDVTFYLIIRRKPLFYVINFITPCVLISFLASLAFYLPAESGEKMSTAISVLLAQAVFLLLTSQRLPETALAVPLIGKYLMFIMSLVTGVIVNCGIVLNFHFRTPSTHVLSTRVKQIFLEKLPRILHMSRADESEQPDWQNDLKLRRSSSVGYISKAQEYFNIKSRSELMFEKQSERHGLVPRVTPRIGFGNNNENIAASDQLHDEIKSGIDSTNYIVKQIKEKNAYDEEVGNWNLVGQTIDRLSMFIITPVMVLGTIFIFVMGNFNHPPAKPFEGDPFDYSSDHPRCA
T1 sequence (P02714 whole entry, looked up, chain 2 of 4): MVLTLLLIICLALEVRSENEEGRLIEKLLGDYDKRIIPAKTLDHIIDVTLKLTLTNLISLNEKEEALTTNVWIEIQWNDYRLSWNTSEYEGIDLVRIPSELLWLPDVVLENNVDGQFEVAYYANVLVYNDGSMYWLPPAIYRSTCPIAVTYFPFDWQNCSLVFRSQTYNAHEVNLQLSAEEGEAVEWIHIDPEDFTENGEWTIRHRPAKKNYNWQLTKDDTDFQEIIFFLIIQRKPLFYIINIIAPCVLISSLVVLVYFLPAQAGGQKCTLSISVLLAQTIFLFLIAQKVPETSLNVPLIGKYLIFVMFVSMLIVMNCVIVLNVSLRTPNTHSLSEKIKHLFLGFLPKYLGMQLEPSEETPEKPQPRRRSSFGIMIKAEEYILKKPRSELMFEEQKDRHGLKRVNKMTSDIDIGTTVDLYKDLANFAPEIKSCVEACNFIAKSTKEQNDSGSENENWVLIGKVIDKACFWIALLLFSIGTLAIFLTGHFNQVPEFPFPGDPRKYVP
T1 sequence (P02712 whole entry, looked up, chain 3 of 4): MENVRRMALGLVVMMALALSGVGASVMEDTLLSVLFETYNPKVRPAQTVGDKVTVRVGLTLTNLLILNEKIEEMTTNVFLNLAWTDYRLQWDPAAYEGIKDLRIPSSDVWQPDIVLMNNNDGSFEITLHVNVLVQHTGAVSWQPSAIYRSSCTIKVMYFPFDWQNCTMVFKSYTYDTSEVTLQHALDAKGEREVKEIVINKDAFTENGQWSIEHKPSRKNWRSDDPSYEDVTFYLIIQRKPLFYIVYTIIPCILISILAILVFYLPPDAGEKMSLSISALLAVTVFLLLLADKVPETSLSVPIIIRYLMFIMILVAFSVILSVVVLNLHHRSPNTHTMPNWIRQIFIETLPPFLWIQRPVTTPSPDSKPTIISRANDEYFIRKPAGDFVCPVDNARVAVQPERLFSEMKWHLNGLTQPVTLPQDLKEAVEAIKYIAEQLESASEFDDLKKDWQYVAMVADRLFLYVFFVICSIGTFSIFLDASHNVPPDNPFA
T1 sequence (P02710 whole entry, looked up, chain 4 of 4): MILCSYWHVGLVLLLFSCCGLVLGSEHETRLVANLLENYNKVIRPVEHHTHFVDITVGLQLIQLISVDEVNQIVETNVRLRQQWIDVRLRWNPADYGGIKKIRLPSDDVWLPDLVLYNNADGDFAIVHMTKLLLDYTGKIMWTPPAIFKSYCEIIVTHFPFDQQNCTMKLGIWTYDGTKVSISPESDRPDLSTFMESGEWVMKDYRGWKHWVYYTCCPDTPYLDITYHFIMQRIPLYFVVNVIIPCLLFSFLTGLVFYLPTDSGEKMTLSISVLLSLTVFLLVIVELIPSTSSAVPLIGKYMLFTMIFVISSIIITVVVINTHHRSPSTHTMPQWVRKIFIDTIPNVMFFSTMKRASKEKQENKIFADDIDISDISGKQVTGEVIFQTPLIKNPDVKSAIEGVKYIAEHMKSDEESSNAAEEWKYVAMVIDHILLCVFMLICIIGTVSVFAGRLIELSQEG
Kind of experiment: radio immunoprecipitation assay; extract of the electric organ of Torpedo californica or extract of rat sciatic nerve as antigen; relative binding affinity; method of ref. 54. The note with it: one partner purified.

The text below walks through data of paper PMC5645109 (PLoS ONE, 2017).

B1: rat mAb35, anti-nAChR main immunogenic region antibody (rat IgG1) (antibody, V domains shown)
VH: EVQLQESGPGLVQPSETLSLTCTVSGFSLTSYSVSWLRQPSGKGPEWMGRMWDDGGTVYNSGLKSRLSISRDTSKNQVFLKMNSLQTDDTGTYYCTRDERIRAINWFAYWGQGTLVTVSS
VL: DIVITQSPSLLSASVGDRVTLTCKGSQNIDNYLAWYQQKLGEAPKLLIYKTNSLQTGIPSRFSGSGSGTDYTLTISSLHSEDLATYYCYQYINGYTFGTGTKLELK
notes: heavy chain of rat mAb35 (rat IgG1); light chain of rat mAb35; the hybridoma clone is named for the cDNA; also called mAb35 (rat); source: rat Hybridoma
Consider B1, for which the binding result is listed as “binds”.
